Key:
[1] = biological target: Serine-tyrosine-phenylalanine-histamine-glutamine
[2] = biological target: T1, Lys-Lys-Lys-Lys-Ala-Asp-Glu-Glu-Asp-Tyr-Phe-Ile-Pro-Pro-Ala
T1 chain: KKKKADEEDYFIPPA

B1: recombinant form of the human CSK enzyme (protein)
chain: MSAIQAAWPSGTECIAKYNFHGTAEQDLPFCKGDVLTIVAVTKDPNWYKAKNKVGREGIIPANYVQKREGVKAGTKLSLMPWFHGKITREQAERLLYPPETGLFLVRESTNYPGDYTLCVSCDGKVEHYRIMYHASKLSIDEEVYFENLMQLVEHYTSDADGLCTRLIKPKVMEGTVAAQDEFYRSGWALNMKELKLLQTIGKGEFGDVMLGDYRGNKVAVKCIKNDATAQAFLAEASVMTQLRHSNLVQLLGVIVEEKGGLYIVTEYMAKGSLVDYLRSRGRSVLGGDCLLKFSLDVCEAMEYLEGNNFVHRDLAARNVLVSEDNVAKVSDFGLTKEASSTQDTGKLPVKWTAPEALREKKFSTKSDVWSFGILLWEIYSFGRVPYPRIPLKDVVPRVEKGYKMDAPDGCPPAVYEVMKNCWHLDAAMRPSFLQLREQLEHIKTHELHL
phosphorylation of library peptide, anti-phosphotyrosine ELISA (absorbance at 450 nm); preferred substrate of the sub-set (Asp-Glu-Tyr-His-Asn): Library Sub-Set 3 Asp-Glu-Tyr-His-Asn [SEQ ID No. 18] | phosphorylation of library peptide, anti-phosphotyrosine ELISA (absorbance at 450 nm); preferred substrate of the sub-set (Tyr-Pro-Ile-Glu-Val): Library Sub-Set 5 Tyr-Pro-Ile-Glu-Val [SEQ ID No. 20] | phosphorylation of library peptide, anti-phosphotyrosine ELISA (absorbance at 450 nm); preferred substrate of the sub-set (Asp-Glu-Glu-Glu-Tyr): Library Sub-Set 1 Asp-Glu-Glu-Glu-Tyr [SEQ ID No. 16] | phosphorylation of library peptide, anti-phosphotyrosine ELISA (absorbance at 450 nm); preferred substrate of the sub-set (Asp-Tyr-His-Leu-Phe): Library Sub-Set 4 Asp-Tyr-His-Leu-Phe [SEQ ID No. 19] | phosphorylation of library peptide, anti-phosphotyrosine ELISA (absorbance at 450 nm); preferred substrate of the sub-set (Asp-Glu-Glu-Tyr-Phe): Library Sub-Set 2 Asp-Glu-Glu-Tyr-Phe [SEQ ID No. 17]

B2: recombinant form of the Abelson murine leukaemia virus protein tyrosine kinase v-Abl (protein)
chain: YITPVNSLEKHSWYHGPVSRNAAEYLLSSGINGSFLVRESESSPGQRSISLRYEGRVYHYRINTASDGKLYVSSESRFNTLAELVHHHSTVADGLITTLHYPAPKRNKPTIYGVSPNYDKWEMERTDITMKHKLGGGQYGEVYEGVWKKYSLTVAVKTLKEDTMEVEEFLKEAAVMKEIKHPNLVQLLGVCTREPPFYIITEFMTYGNLLDYLRECNRQEVSAVVLLYMATQISSAMEYLEKKNFIHRDLAARNCLVGENHLVKVADFGLSRLMTGDTYTAHAGAKFPIKWTAPESLAYNKFSIKSDVWAFGVLLWEIATYGMSPYPGIDLSQVYELLEKDYRMERPEGCPEKVYELMRACWQWNPSDRPSFAEIHQAFETMFQESSISDEVEKELGKRG
phosphorylation of library peptide, anti-phosphotyrosine ELISA (absorbance at 450 nm); preferred substrate of Library Sub-Set 4 [1]: The active site substrate recognition substrate for this enzyme for this Sub-Set was Serine-tyrosine-phenylalanine-histamine-glutamine [SEQ ID No. 21]

B3: catalytic domain of human ZAP-70 (amino acid 306-615), recombinant, from baculovirus-infected Sf9 cells (protein)
chain: RPMPMDTSVYESPYSDPEELKDKKLFLKRDNLLIADIELGCGNFGSVRQGVYRMRKKQIDVAIKVLKQGTEKADTEEMMREAQIMHQLDNPYIVRLIGVCQAEALMLVMEMAGGGPLHKFLVGKREEIPVSNVAELLHQVSMGMKYLEEKNFVHRDLAARNVLLVNRHYAKISDFGLSKALGADDSYYTARSAGKWPLKWYAPECINFRKFSSRSDVWSYGVTMWEALSYGQKPYKKMKGPEVMAFIEQGKRMECPPECPPELYALMSDCWIYKWEDRPDFLTVEQRMRACYYSLASKVEGPPGSTQKAE
protein kinase activity against the peptide substrate (column fractions) [2]: ZAP-70 fractions identified by protein kinase activity against the peptide substrate Lys-Lys-Lys-Lys-Ala-Asp-Glu-Glu-Asp-Tyr-Phe-Ile-Pro-Pro-Ala | Km (33P-γ-ATP phosphorylation of the biotin peptide, streptavidin filter plate capture) (Biotin-εAHA-DEEDYFE(Nle)): 15.79 µM

From patent US20020155503
